Source: patent US20150344570A1 (published 2015)

T1: FcγRIIa R extracellular domain with C-terminal His tag (human, UniProt P12318 34-217)
T1 construct: extracellular domain; also called FcgRIIa R; 2aR; not shown: His tag at the C terminus
T1 sequence (looked up): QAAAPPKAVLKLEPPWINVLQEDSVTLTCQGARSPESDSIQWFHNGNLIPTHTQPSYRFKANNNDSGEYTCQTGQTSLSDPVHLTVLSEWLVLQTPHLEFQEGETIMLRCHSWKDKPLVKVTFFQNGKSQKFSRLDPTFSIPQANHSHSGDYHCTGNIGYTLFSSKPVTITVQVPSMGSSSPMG

B1: GpH7-B3 variant K334_10E/GpL16-k0 (antibody, human IgG1, kappa)
heavy: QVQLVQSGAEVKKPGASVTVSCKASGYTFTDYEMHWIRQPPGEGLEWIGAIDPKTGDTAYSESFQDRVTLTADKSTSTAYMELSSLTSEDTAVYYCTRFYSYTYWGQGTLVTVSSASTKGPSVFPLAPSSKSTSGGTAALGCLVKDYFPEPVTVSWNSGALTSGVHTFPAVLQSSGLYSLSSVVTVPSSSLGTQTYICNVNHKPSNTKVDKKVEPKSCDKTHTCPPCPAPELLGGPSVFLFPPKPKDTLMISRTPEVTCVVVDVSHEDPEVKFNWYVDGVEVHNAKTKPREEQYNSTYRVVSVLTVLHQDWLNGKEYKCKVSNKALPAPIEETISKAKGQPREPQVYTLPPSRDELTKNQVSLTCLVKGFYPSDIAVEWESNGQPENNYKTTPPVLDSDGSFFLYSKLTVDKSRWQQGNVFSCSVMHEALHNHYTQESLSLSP
light: DIVMTQSPLSLPVTPGEPASISCQASESLVHSNRNTYLHWYLQKPGQSPQLLIYKVSNRFSGVPDRFSGSGSGTDFTLKISRVEAEDVGVYYCSQNTHVPPTFGQGTKVEIERTVAAPSVFIFPPSDEQLKSGTASVVCLLNNFYPREAKVQWKVDNALQSGNSQESVTEQDSKDSTYSLSSTLTLSKADYEKHKVYACEVTHQGLSSPVTKSFNRGEC
notes: homodimerized: alteration in both H chains; also called Ho Ab K334_10E
B2: GpH7-B3 variant P331_20W/GpL16-k0 (antibody, human IgG1, kappa)
heavy: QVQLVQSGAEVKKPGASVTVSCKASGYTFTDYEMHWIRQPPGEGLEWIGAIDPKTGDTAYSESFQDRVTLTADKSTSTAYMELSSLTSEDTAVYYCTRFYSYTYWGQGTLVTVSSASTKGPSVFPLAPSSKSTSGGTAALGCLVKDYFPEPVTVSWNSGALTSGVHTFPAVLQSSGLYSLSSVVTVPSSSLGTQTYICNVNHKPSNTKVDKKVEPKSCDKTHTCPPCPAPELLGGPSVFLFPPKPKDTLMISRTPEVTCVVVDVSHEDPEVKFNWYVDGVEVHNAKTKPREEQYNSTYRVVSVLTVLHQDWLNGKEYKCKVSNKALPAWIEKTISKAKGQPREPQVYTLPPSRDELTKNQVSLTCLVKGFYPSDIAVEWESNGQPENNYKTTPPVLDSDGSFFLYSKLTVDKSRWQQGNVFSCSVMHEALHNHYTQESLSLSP
light: B1 light
notes: homodimerized: alteration in both H chains; also called Ho Ab P331_20W
B3: GpH7-B3 variant P331_16H/GpL16-k0 (antibody, human IgG1, kappa)
heavy: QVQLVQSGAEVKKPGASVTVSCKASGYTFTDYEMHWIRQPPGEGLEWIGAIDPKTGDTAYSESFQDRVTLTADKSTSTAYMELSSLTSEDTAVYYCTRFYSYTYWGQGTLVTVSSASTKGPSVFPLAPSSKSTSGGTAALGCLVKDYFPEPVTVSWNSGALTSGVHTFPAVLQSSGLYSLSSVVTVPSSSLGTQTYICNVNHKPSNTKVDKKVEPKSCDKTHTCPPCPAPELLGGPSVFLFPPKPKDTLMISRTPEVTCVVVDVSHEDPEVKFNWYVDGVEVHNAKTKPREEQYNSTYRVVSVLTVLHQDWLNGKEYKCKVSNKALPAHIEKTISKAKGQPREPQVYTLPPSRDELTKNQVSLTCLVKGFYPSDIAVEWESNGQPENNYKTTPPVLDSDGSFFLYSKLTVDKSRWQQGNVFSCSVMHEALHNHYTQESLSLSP
light: B1 light
notes: homodimerized: alteration in both H chains; also called Ho Ab P331_16H
B4: GpH7-B3 variant T335_07I/GpL16-k0 (antibody, human IgG1, kappa)
heavy: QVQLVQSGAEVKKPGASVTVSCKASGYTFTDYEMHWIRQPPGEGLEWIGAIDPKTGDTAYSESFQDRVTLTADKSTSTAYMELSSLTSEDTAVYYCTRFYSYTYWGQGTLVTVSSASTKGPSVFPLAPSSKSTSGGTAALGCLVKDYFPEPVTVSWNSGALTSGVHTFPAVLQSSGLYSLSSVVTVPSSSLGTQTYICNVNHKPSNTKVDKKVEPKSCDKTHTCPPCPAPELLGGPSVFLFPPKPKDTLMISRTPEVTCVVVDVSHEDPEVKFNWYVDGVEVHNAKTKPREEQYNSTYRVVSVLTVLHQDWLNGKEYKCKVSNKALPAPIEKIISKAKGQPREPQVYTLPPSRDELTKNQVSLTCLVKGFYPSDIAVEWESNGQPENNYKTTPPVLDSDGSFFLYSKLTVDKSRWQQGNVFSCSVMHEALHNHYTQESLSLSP
light: B1 light
notes: homodimerized: alteration in both H chains; also called Ho Ab T335_07I
B5: GpH7-B3 variant P331_15Y/GpL16-k0 (antibody, human IgG1, kappa)
heavy: not shown
light: B1 light
notes: homodimerized: alteration in both H chains; also called Ho Ab P331_15Y
B6: GpH7-B3 variant S239_18N/GpL16-k0 (antibody, human IgG1, kappa)
heavy: not shown
light: B1 light
notes: homodimerized: alteration in both H chains; also called Ho Ab S239_18N
B7: GpH7-B3 variant K334_04F/GpL16-k0 (antibody, human IgG1, kappa)
heavy: not shown
light: B1 light
notes: homodimerized: alteration in both H chains; also called Ho Ab K334_04F
B8: GpH7-B3 variant T335_13S/GpL16-k0 (antibody, human IgG1, kappa)
heavy: not shown
light: B1 light
notes: homodimerized: alteration in both H chains; also called Ho Ab T335_13S
B9: GpH7-B3 variant K334_19Q/GpL16-k0 (antibody, human IgG1, kappa)
heavy: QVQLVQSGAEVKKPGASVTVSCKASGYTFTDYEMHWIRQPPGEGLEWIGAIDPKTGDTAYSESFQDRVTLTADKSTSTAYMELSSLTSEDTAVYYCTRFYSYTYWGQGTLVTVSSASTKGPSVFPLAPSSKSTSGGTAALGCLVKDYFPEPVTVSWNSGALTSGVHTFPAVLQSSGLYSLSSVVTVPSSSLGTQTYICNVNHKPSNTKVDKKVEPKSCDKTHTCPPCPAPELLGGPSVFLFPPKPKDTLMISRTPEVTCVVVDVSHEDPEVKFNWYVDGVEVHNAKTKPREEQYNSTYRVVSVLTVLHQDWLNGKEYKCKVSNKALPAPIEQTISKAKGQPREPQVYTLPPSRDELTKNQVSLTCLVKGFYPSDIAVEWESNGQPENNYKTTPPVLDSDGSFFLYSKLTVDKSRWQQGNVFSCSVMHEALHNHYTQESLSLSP
light: B1 light
notes: homodimerized: alteration in both H chains; also called Ho Ab K334_19Q
B10: GpH7-B3 variant K334_13S/GpL16-k0 (antibody, human IgG1, kappa)
heavy: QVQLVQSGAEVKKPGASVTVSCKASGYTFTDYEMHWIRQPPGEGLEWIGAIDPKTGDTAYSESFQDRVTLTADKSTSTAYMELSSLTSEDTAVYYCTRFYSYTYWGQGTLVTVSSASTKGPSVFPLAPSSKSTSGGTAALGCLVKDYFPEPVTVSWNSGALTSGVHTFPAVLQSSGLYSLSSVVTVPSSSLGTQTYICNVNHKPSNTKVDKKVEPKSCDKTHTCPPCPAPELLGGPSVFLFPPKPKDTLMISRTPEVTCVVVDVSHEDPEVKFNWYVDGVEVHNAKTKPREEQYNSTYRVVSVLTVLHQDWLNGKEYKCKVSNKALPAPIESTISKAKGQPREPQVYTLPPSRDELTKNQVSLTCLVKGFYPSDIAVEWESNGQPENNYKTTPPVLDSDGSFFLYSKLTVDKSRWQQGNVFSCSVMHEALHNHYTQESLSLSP
light: B1 light
notes: homodimerized: alteration in both H chains; also called Ho Ab K334_13S
B11: GpH7-B3 variant S267_03V/GpL16-k0 (antibody, human IgG1, kappa)
heavy: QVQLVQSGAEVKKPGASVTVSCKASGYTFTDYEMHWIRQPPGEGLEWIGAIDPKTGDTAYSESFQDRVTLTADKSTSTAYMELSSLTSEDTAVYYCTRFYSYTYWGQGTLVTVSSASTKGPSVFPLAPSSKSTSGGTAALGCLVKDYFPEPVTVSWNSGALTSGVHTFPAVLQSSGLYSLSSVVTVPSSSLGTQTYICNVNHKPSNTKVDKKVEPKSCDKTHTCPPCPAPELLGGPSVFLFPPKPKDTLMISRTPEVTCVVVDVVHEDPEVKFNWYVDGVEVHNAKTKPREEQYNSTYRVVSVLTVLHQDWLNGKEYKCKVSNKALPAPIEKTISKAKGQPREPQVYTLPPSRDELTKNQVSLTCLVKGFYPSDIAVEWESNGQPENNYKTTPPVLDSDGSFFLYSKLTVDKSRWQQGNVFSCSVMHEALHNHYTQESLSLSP
light: B1 light
notes: homodimerized: alteration in both H chains; also called Ho Ab S267_03V
B12: GpH7-B3 variant S267_06M/GpL16-k0 (antibody, human IgG1, kappa)
heavy: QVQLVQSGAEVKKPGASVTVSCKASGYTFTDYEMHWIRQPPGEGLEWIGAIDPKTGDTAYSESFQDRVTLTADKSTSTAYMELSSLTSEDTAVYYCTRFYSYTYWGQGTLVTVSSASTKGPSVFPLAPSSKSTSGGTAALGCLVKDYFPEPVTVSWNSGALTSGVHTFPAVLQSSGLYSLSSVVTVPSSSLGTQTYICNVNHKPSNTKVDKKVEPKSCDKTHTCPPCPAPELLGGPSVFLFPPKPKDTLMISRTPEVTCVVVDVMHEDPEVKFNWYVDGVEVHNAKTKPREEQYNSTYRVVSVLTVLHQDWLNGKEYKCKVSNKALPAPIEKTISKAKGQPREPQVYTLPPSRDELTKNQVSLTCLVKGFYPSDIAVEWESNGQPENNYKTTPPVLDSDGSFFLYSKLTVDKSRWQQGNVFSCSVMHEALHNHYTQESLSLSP
light: B1 light
notes: homodimerized: alteration in both H chains; also called Ho Ab S267_06M
B13: GpH7-B3 variant S337_10E/GpL16-k0 (antibody, human IgG1, kappa)
heavy: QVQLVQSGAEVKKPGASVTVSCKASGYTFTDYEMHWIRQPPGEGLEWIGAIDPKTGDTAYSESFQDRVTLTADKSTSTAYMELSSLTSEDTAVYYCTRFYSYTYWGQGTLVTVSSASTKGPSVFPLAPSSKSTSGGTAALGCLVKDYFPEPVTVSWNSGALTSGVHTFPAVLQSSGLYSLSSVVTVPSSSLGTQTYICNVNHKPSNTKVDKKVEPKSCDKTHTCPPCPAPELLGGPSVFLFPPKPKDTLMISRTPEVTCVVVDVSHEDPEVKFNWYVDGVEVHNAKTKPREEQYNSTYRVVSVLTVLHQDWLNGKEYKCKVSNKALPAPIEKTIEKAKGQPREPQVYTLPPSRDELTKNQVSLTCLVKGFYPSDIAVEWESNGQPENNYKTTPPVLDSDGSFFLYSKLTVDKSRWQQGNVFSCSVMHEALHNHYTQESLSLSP
light: B1 light
notes: homodimerized: alteration in both H chains; also called Ho Ab S337_10E
B14: GpH7-B3 variant L328_14T/GpL16-k0 (antibody, human IgG1, kappa)
heavy: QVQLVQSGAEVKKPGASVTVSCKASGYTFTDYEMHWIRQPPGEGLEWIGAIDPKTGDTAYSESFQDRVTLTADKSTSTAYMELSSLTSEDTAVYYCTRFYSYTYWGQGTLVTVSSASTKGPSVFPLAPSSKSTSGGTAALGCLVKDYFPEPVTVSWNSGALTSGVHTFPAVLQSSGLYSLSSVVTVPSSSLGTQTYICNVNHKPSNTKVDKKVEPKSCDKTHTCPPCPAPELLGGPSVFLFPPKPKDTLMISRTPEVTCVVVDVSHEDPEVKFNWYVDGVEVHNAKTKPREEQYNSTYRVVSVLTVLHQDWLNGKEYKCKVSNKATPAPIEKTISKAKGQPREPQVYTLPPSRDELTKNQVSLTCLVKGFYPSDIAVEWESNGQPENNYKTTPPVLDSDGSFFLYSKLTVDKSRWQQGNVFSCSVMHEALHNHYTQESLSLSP
light: B1 light
notes: homodimerized: alteration in both H chains; also called Ho Ab L328_14T
B15: GpH7-B3 variant T335_05P/GpL16-k0 (antibody, human IgG1, kappa)
heavy: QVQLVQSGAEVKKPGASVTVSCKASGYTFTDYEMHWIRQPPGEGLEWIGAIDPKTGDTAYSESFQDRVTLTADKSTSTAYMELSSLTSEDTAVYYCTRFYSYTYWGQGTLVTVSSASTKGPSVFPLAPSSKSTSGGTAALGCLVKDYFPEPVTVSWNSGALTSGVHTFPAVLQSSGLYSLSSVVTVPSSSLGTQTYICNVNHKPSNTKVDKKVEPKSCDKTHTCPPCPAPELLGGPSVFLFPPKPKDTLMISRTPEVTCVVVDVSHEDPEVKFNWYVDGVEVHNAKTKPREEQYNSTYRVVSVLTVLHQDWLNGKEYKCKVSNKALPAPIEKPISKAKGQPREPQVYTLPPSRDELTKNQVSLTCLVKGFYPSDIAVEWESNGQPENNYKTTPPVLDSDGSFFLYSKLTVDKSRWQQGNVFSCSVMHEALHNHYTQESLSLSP
light: B1 light
notes: homodimerized: alteration in both H chains; also called Ho Ab T335_05P
B16: GpH7-A5/GpH7-B3 variant S337_02A/GpL16-k0 (antibody, human IgG1, kappa)
heavy 1: not shown
heavy 2: not shown
light: B1 light
notes: heterodimerized: alteration in one H chain only; also called He Ab S337_02A
B17: GpH7-A5/GpH7-B3 variant A327_10E/GpL16-k0 (antibody, human IgG1, kappa)
heavy 1: not shown
heavy 2: not shown
light: B1 light
notes: heterodimerized: alteration in one H chain only; also called He Ab A327_10E
B18: GpH7-A5/GpH7-B3 variant I336_08L/GpL16-k0 (antibody, human IgG1, kappa)
heavy 1: not shown
heavy 2: not shown
light: B1 light
notes: heterodimerized: alteration in one H chain only; also called He Ab I336_08L
B19: GpH7-A5/GpH7-B3 variant A327_09D/GpL16-k0 (antibody, human IgG1, kappa)
heavy 1: not shown
heavy 2: not shown
light: B1 light
notes: heterodimerized: alteration in one H chain only; also called He Ab A327_09D
B20: GpH7-A5/GpH7-B3 variant G237_20W/GpL16-k0 (antibody, human IgG1, kappa)
heavy 1: not shown
heavy 2: not shown
light: B1 light
notes: heterodimerized: alteration in one H chain only; also called He Ab G237_20W
B21: GpH7-A5/GpH7-B3 variant A330_12R/GpL16-k0 (antibody, human IgG1, kappa)
heavy 1: not shown
heavy 2: not shown
light: B1 light
notes: heterodimerized: alteration in one H chain only; also called He Ab A330_12R
B22: GpH7-A5/GpH7-B3 variant I332_06M/GpL16-k0 (antibody, human IgG1, kappa)
heavy 1: not shown
heavy 2: not shown
light: B1 light
notes: heterodimerized: alteration in one H chain only; also called He Ab I332_06M
B23: GpH7-A5/GpH7-B3 variant K326_04F/GpL16-k0 (antibody, human IgG1, kappa)
heavy 1: not shown
heavy 2: not shown
light: B1 light
notes: heterodimerized: alteration in one H chain only; also called He Ab K326_04F
B24: GpH7-A5/GpH7-B3 variant K326_03V/GpL16-k0 (antibody, human IgG1, kappa)
heavy 1: not shown
heavy 2: not shown
light: B1 light
notes: heterodimerized: alteration in one H chain only; also called He Ab K326_03V
B25: GpH7-A5/GpH7-B3 variant A330_01G/GpL16-k0 (antibody, human IgG1, kappa)
heavy 1: not shown
heavy 2: not shown
light: B1 light
notes: heterodimerized: alteration in one H chain only; also called He Ab A330_01G
B26: GpH7-A5/GpH7-B3 variant H268_01G/GpL16-k0 (antibody, human IgG1, kappa)
heavy 1: not shown
heavy 2: not shown
light: B1 light
notes: heterodimerized: alteration in one H chain only; also called He Ab H268_01G
B27: GpH7-A5/GpH7-B3 variant G237_04F/GpL16-k0 (antibody, human IgG1, kappa)
heavy 1: not shown
heavy 2: not shown
light: B1 light
notes: heterodimerized: alteration in one H chain only; also called He Ab G237_04F

biological target: T1, FcγRIIa R extracellular domain with …; assay: SPR (Biacore), relative FcγRIIa R binding, GpH7-B3/GpL16-k0 = 100
Experimental: Analysis of interaction between objective antibody and the FcγR was carried out using Biacore T100 (GE Healthcare). HBS-EP+ (GE Healthcare) was used as the running buffer, and the measurement temperature was set to 25° C. Chips produced by immobilizing the antigen peptide by the amine coupling method to a Series S Sencor Chip CM5 (GE Healthcare), or alternatively, chips produced by allowing preliminarily biotinylated antigen peptides to interact with and immobilize onto a Series S Sensor Chip SA (certified) (GE Healthcare) were used. Antibodies of interest were captured onto an antigen peptide-immobilized chip, and allowed to interact to each FcγR diluted with running buffer. To regenerate and repeatedly use the chip, the antibodies captured on the chip were washed off by reacting 10 mM glycine-HCl, pH 1.5.

Ho/Con_2aR	Binder
106 % of control	B1
102 % of control	B2
100 % of control	B3
107 % of control	B4
105 % of control	B5
103 % of control	B6
110 % of control	B7
102 % of control	B8
108 % of control	B9
106 % of control	B10
115 % of control	B11
102 % of control	B12
110 % of control	B13
118 % of control	B14
104 % of control	B15

biological target: T1, FcγRIIa R extracellular domain with …; assay: SPR (Biacore), relative FcγRIIa R binding, GpH7-A5/GpH7-B3/GpL16-k0 = 100

He/Con_2aR	Binder
105 % of control	B16
110 % of control	B17
110 % of control	B18
124 % of control	B19
138 % of control	B20
104 % of control	B21
109 % of control	B22
135 % of control	B23
141 % of control	B24
109 % of control	B25
124 % of control	B26
126 % of control	B27
